Tests used:
HeLa Kyoto [1] = test: solubility in G1/S (NP-40 vs SDS abundance) (log2 ratio); higher = more soluble; conditions: cell cycle stage: G1/S
HeLa Kyoto [2] = test: melting temperature (median over replicates), in situ; higher = more thermally stable
HeLa Kyoto [3] = test: solubility change mitosis vs G1/S (difference of NP-40 vs SDS log2 ratios) (log2 ratio difference); higher = more soluble in mitosis
HeLa Kyoto [4] = test: thermal stability score vs G1/S (z-score of summed log2 fold changes over temperatures); higher = more thermally stable than in G1/S
[5] = cell cycle stage: early G1 (4.5 h after nocodazole release)
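For melting temperature (median over replicates), in situ in this document: HeLa Kyoto cells synchronized by double thymidine or nocodazole block, proteins quantified by TMT10plex mass spectrometry, three independent biological replicates.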
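For solubility change mitosis vs G1/S (difference of NP-40 vs SDS log2 ratios) in this document: synchronized HeLa Kyoto cells (double thymidine block for G1/S, nocodazole release for mitosis), protein amounts in NP-40 versus SDS lysates quantified by mass spectrometry, three biological replicates.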
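For solubility in G1/S (NP-40 vs SDS abundance) in this document: HeLa Kyoto cells arrested at G1/S by double thymidine block, proteins quantified by TMT10plex mass spectrometry in mild NP-40 versus SDS extracts, three biological replicates.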
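For thermal stability score vs G1/S (z-score of summed log2 fold changes over temperatures) in this document: synchronized HeLa Kyoto cells, proteins quantified by TMT10plex mass spectrometry, three biological replicates, mitosis taken 0.5 h after nocodazole release, G1/S directly after double thymidine block.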

Chain of TIMM50 (chain, as listed by the source): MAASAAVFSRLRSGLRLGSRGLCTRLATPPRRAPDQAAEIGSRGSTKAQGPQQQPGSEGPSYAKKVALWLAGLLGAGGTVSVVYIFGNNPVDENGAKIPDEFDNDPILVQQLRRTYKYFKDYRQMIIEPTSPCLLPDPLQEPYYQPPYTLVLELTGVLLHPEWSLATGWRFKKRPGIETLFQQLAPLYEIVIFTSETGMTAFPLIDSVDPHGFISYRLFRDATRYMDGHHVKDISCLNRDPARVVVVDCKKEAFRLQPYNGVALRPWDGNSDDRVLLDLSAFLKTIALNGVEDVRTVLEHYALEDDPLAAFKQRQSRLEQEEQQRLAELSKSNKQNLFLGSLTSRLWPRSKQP

Row | Substance | solubility in G1/S (log2) (HeLa Kyoto [1]) | melting temperature (HeLa Kyoto [2]; cell cycle stage: G1/S) [°C] | melting temperature (HeLa Kyoto [2]; cell cycle stage: mitosis) [°C] | solubility change mitosis (log2) (HeLa Kyoto [3]) | thermal stability score (HeLa Kyoto [4]; [5]) | thermal stability score (HeLa Kyoto [4]; cell cycle stage: mitosis)
1 | MASCPDSDNSWVLAGSESLPVETLGPASRMDPESERALQAPHSPSKTDGKELAGTMDGEGTLFQTESPQSGSILTEETEVKGTLEGDVCGVEPPGPGDTVVQGDLQETTVVTGLGPDTQDLEGQSPPQSLPSTPKAAWIREEGRCSSSDDDTDVDMEGLRRRRGREAGPPQPMVPLAVENQAGGEGAGGELGISLNMCLLGALVLLGLGVLLFSGGLSESETGPMEEVERQVLPDPEVLEAVGDRQDGLREQLQAPVPPDSVPSLQNMGLLLDKLAKENQDIRLLQAQLQAQKEELQSLMHQPKGLEEENAQLRGALQQGEAFQRALESELQQLRARLQGLEADCVRGPDGVCLSGGRGPQGDKAIREQGPREQEPELSFLKQKEQLEAEAQALRQELERQRRLLGSVQQDLERSLQDASRGDPAHAGLAELGHRLAQKLQGLENWGQDPGVSANASKAWHQKSHFQNSREWSGKEKWWDGQRDRKAEHWKHKKEESGRERKKNWGGQEDREPAGRWKEGRPRVEESGSKKEGKRQGPKEPPRKSGSFHSSGEKQKQPRWREGTKDSHDPLPSWAELLRPKYRAPQGCSGVDECARQEGLTFFGTELAPVRQQELASLLRTYLARLPWAGQLTKELPLSPAFFGEDGIFRHDRLRFRDFVDALEDSLEEVAVQQTGDDDEVDDFEDFIFSHFFGDKALKKRSGKKDKHSQSPRAAGPREGHSHSHHHHHRG [PBXIP1] | -0.166 | 55.4 | 53.7 | -0.0444 | -1.68 | 0.474
2 | MNEEYDVIVLGTGLTECILSGIMSVNGKKVLHMDRNPYYGGESASITPLEDLYKRFKIPGSPPESMGRGRDWNVDLIPKFLMANGQLVKMLLYTEVTRYLDFKVTEGSFVYKGGKIYKVPSTEAEALASSLMGLFEKRRFRKFLVYVANFDEKDPRTFEGIDPKKTTMRDVYKKFDLGQDVIDFTGHALALYRTDDYLDQPCYETINRIKLYSESLARYGKSPYLYPLYGLGELPQGFARLSAIYGGTYMLNKPIEEIIVQNGKVIGVKSEGEIARCKQLICDPSYVKDRVEKVGQVIRVICILSHPIKNTNDANSCQIIIPQNQVNRKSDIYVCMISFAHNVAAQGKYIAIVSTTVETKEPEKEIRPALELLEPIEQKFVSISDLLVPKDLGTESQIFISRTYDATTHFETTCDDIKNIYKRMTGSEFDFEEMKRKKNDIYGED [GDI2] | 0.218 | 55.2 | 54.7 | -0.174 | -1.03 | -0.13
3 | MAAYLQWRRFVFFDKELVKEPLSNDGAAPGATPASGSAASKFLCLPPGITVCDSGRGSLVFGDMEGQIWFLPRSLQLTGFQAYKLRVTHLYQLKQHNILASVGEDEEGINPLVKIWNLEKRDGGNPLCTRIFPAIPGTEPTVVSCLTVHENLNFMAIGFTDGSVTLNKGDITRDRHSKTQILHKGNYPVTGLAFRQAGKTTHLFVVTTENVQSYIVSGKDYPRVELDTHGCGLRCSALSDPSQDLQFIVAGDECVYLYQPDERGPCFAFEGHKLIAHWFRGYLIIVSRDRKVSPKSEFTSRDSQSSDKQILNIYDLCNKFIAYSTVFEDVVDVLAEWGSLYVLTRDGRVHALQEKDTQTKLEMLFKKNLFEMAINLAKSQHLDSDGLAQIFMQYGDHLYSKGNHDGAVQQYIRTIGKLEPSYVIRKFLDAQRIHNLTAYLQTLHRQSLANADHTTLLLNCYTKLKDSSKLEEFIKKKSESEVHFDVETAIKVLRQAGYYSHALYLAENHAHHEWYLKIQLEDIKNYQEALRYIGKLPFEQAESNMKRYGKILMHHIPEQTTQLLKGLCTDYRPSLEGRSDREAPGCRANSEEFIPIFANNPRELKAFLEHMSEVQPDSPQGIYDTLLELRLQNWAHEKDPQVKEKLHAEAISLLKSGRFCDVFDKALVLCQMHDFQDGVLYLYEQGKLFQQIMHYHMQHEQYRQVISVCERHGEQDPSLWEQALSYFARKEEDCKEYVAAVLKHIENKNLMPPLLVVQTLAHNSTATLSVIRDYLVQKLQKQSQQIAQDELRVRRYREETTRIRQEIQELKASPKIFQKTKCSICNSALELPSVHFLCGHSFHQHCFESYSESDADCPTCLPENRKVMDMIRAQEQKRDLHDQFQHQLRCSNDSFSVIADYFGRGVFNKLTLLTDPPTARLTSSLEAGLQRDLLMHSRRGT [VPS11] | -0.142 | 51.3 | 49.9 | -0.106 | -0.498 | -0.231
4 | MLETLRERLLSVQQDFTSGLKTLSDKSREAKVKSKPRTVPFLPKYSAGLELLSRYEDTWAALHRRAKDCASAGELVDSEVVMLSAHWEKKKTSLVELQEQLQQLPALIADLESMTANLTHLEASFEEVENNLLHLEDLCGQCELERCKHMQSQQLENYKKNKRKELETFKAELDAEHAQKVLEMEHTQQMKLKERQKFFEEAFQQDMEQYLSTGYLQIAERREPIGSMSSMEVNVDMLEQMDLMDISDQEALDVFLNSGGEENTVLSPALGPESSTCQNEITLQVPNPSELRAKPPSSSSTCTDSATRDISEGGESPVVQSDEEEVQVDTALATSHTDREATPDGGEDSDS [DTNBP1] | 0.267 | 54.1 |  | -0.387 | -0.457 | -0.463
5 | MEGCVSNLMVCNLAYSGKLEELKESILADKSLATRTDQDSRTALHWACSAGHTEIVEFLLQLGVPVNDKDDAGWSPLHIAASAGRDEIVKALLGKGAQVNAVNQNGCTPLHYAASKNRHEIAVMLLEGGANPDAKDHYEATAMHRAAAKGNLKMIHILLYYKASTNIQDTEGNTPLHLACDEERVEEAKLLVSQGASIYIENKEEKTPLQVAKGGLGLILKRMVEG [PSMD10] | 0.145 | 48.5 | 49.8 | 0.136 | 0.248 | 1.31
6 | MAAPILRSFSWGRWSGTLNLSVLLPLGLRKAHSGAQGLLAAQKARGLFKDFFPETGTKIELPELFDRGTASFPQTIYCGFDPTADSLHVGHLLALLGLFHLQRAGHNVIALVGGATARLGDPSGRTKEREALETERVRANARALRLGLEALAANHQQLFTDGRSWGSFTVLDNSAWYQKQHLVDFLAAVGGHFRMGTLLSRQSVQLRLKSPEGMSLAEFFYQVLQAYDFYYLFQRYGCRVQLGGSDQLGNIMSGYEFINKLTGEDVFGITVPLITSTTGAKLGKSAGNAVWLNRDKTSPFELYQFFVRQPDDSVERYLKLFTFLPLPEIDHIMQLHVKEPERRGPQKRLAAEVTKLVHGREGLDSAKRCTQALYHSSIDALEVMSDQELKELFKEAPFSEFFLDPGTSVLDTCRKANAIPDGPRGYRMITEGGVSINHQQVTNPESVLIVGQHILKNGLSLLKIGKRNFYIIKWLQL [YARS2] | 0.027 | 48.8 | 48.2 | -0.0352 | 0.871 | 4.36
7 | MAEPSAPESKHKSSLNSSPWSGLMALGNSRHGHHGPGAQCAHKAAGGAAPPKPAPAGLSGGLSQPAGWQSLLSFTILFLAWLAGFSSRLFAVIRFESIIHEFDPWFNYRSTHHLASHGFYEFLNWFDERAWYPLGRIVGGTVYPGLMITAGLIHWILNTLNITVHIRDVCVFLAPTFSGLTSISTFLLTRELWNQGAGLLAACFIAIVPGYISRSVAGSFDNEGIAIFALQFTYYLWVKSVKTGSVFWTMCCCLSYFYMVSAWGGYVFIINLIPLHVFVLLLMQRYSKRVYIAYSTFYIVGLILSMQIPFVGFQPIRTSEHMAAAGVFALLQAYAFLQYLRDRLTKQEFQTLFFLGVSLAAGAVFLSVIYLTYTGYIAPWSGRFYSLWDTGYAKIHIPIIASVSEHQPTTWVSFFFDLHILVCTFPAGLWFCIKNINDERVFVALYAISAVYFAGVMVRLMLTLTPVVCMLSAIAFSNVFEHYLGDDMKRENPPVEDSSDEDDKRNQGNLYDKAGKVRKHATEQEKTEEGLGPNIKSIVTMLMLMLLMMFAVHCTWVTSNAYSSPSVVLASYNHDGTRNILDDFREAYFWLRQNTDEHARVMSWWDYGYQIAGMANRTTLVDNNTWNNSHIALVGKAMSSNETAAYKIMRTLDVDYVLVIFGGVIGYSGDDINKFLWMVRIAEGEHPKDIRESDYFTPQGEFRVDKAGSPTLLNCLMYKMSYYRFGEMQLDFRTPPGFDRTRNAEIGNKDIKFKHLEEAFTSEHWLVRIYKVKAPDNRETLDHKPRVTNIFPKQKYLSKKTTKRKRGYIKNKLVFKKGKKISKKTV [STT3B] | -0.175 | 53.8 | 54.2 | -0.0861 | 3.35 | 3.7
8 | MEFVKCLGHPEEFYNLVRFRIGGKRKVMPKMDQDSLSSSLKTCYKYLNQTSRSFAAVIQALDGEMRNAVCIFYLVLRALDTLEDDMTISVEKKVPLLHNFHSFLYQPDWRFMESKEKDRQVLEDFPTISLEFRNLAEKYQTVIADICRRMGIGMAEFLDKHVTSEQEWDKYCHYVAGLVGIGLSRLFSASEFEDPLVGEDTERANSMGLFLQKTNIIRDYLEDQQGGREFWPQEVWSRYVKKLGDFAKPENIDLAVQCLNELITNALHHIPDVITYLSRLRNQSVFNFCAIPQVMAIATLAACYNNQQVFKGAVKIRKGQAVTLMMDATNMPAVKAIIYQYMEEIYHRIPDSDPSSSKTRQIISTIRTQNLPNCQLISRSHYSPIYLSFVMLLAALSWQYLTTLSQVTEDYVQTGEH [FDFT1] | -0.184 | 52.2 | 51.4 | -0.0823 | 1.39 | 0.889
9 | TIMM50 | 0.393 | 51.4 | 50.8 | -0.0286 | -0.406 | -0.388
10 | MAATELRGVVGPGPAAIAALGGGGAGPPVVGGGGGRGDAGPGSGAASGTVVAAAAGGPGPGAGGVAAAGPAPAPPTGGSGGSGAGGSGSAREGWLFKWTNYIKGYQRRWFVLSNGLLSYYRSKAEMRHTCRGTINLATANITVEDSCNFIISNGGAQTYHLKASSEVERQRWVTALELAKAKAVKMLAESDESGDEESVSQTDKTELQNTLRTLSSKVEDLSTCNDLIAKHGTALQRSLSELESLKLPAESNEKIKQVNERATLFRITSNAMINACRDFLMLAQTHSKKWQKSLQYERDQRIRLEETLEQLAKQHNHLERAFRGATVLPANTPGNVGSGKDQCCSGKGDMSDEDDENEFFDAPEIITMPENLGHKRTGSNISGASSDISLDEQYKHQLEETKKEKRTRIPYKPNYSLNLWSIMKNCIGKELSKIPMPVNFNEPLSMLQRLTEDLEYHELLDRAAKCENSLEQLCYVAAFTVSSYSTTVFRTSKPFNPLLGETFELDRLEENGYRSLCEQVSHHPPAAAHHAESKNGWTLRQEIKITSKFRGKYLSIMPLGTIHCIFHATGHHYTWKKVTTTVHNIIVGKLWIDQSGEIDIVNHKTGDKCNLKFVPYSYFSRDVARKVTGEVTDPSGKVHFALLGTWDEKMECFKVQPVIGENGGDARQRGHEAEESRVMLWKRNPLPKNAENMYYFSELALTLNAWESGTAPTDSRLRPDQRLMENGRWDEANAEKQRLEEKQRLSRKKREAEAMKATEDGTPYDPYKALWFERKKDPVTKELTHIYRGEYWECKEKQDWSSCPDIF [OSBP] | -0.0183 | 52.1 | 51.9 | -0.212 | -1.23 | -0.683
11 | MAAVPELLQQQEEDRSKLRSVSVDLNVDPSLQIDIPDALSERDKVKFTVHTKTTLPTFQSPEFSVTRQHEDFVWLHDTLIETTDYAGLIIPPAPTKPDFDGPREKMQKLGEGEGSMTKEEFAKMKQELEAEYLAVFKKTVSSHEVFLQRLSSHPVLSKDRNFHVFLEYDQDLSVRRKNTKEMFGGFFKSVVKSADEVLFTGVKEVDDFFEQEKNFLINYYNRIKDSCVKADKMTRSHKNVADDYIHTAACLHSLALEEPTVIKKYLLKVAELFEKLRKVEGRVSSDEDLKLTELLRYYMLNIEAAKDLLYRRTKALIDYENSNKALDKARLKSKDVKLAEAHQQECCQKFEQLSESAKEELINFKRKRVAAFRKNLIEMSELEIKHARNNVSLLQSCIDLFKNN [SNX5] | 0.468 | 52.3 | 50.9 | -0.0436 | 0.949 | -0.872
